Laboratory results as given in patent US20250215072A1 (published 2025).
Residue numbers refer to the chain shown, from its start. Where two headings read alike, the source gives them in different places. One block for each binder: values may come before it.

Columns and labels:
[1] = target: hLTBP1-proTGFβ1 as produced in the cell-based activation assay (human, UniProt P01137 30-390; Q14766 347-1721); test: cell-based or functional assay
[2] = target: hLTBP3-proTGFβ1 as produced in the cell-based activation assay (human, UniProt P01137 30-390; Q9NS15 44-1303); test: cell-based or functional assay
[3] = target: hGARP-proTGFβ1 presented on cells (human, UniProt P01137 30-390; Q14392 20-662); test: cell-based or functional assay
hGARP-proTGFβ1 presented on cells, sequence (P01137 30-390 limits assumed, chain 1 of 2): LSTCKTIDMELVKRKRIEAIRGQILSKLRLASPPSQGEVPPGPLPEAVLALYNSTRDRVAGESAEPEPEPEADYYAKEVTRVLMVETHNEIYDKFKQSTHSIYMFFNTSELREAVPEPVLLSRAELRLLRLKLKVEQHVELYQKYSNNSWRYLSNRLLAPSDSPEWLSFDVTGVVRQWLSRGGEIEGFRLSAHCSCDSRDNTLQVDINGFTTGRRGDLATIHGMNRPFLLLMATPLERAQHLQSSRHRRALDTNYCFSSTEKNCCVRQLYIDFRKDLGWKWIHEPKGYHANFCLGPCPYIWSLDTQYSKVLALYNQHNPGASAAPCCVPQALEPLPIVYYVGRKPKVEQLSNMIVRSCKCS
hGARP-proTGFβ1 presented on cells, sequence (Q14392 20-662 limits assumed, chain 2 of 2): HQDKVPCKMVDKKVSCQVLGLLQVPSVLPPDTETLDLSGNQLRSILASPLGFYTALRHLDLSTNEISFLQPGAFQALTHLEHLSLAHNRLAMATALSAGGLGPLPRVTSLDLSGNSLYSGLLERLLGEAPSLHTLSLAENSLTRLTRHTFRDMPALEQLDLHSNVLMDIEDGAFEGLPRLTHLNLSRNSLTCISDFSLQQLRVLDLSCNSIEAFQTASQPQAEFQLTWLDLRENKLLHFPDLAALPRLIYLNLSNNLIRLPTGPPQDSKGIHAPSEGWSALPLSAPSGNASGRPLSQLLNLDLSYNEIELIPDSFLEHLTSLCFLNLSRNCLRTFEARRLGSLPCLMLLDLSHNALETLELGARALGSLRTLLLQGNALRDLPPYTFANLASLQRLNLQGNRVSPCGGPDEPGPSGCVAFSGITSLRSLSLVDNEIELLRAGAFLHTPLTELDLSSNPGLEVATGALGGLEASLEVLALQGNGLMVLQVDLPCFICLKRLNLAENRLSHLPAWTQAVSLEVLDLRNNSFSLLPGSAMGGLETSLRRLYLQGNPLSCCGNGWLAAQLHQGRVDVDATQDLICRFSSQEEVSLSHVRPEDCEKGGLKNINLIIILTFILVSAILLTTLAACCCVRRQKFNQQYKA

[4] = target: hLRRC33-proTGFβ1 presented on cells (human, UniProt P01137 30-390; Q86YC3 19-692); test: cell-based or functional assay
hLRRC33-proTGFβ1 presented on cells, sequence (P01137 30-390 limits assumed, chain 1 of 2): as the sequence (P01137 30-390 limits assumed, chain 1 of 2) above
hLRRC33-proTGFβ1 presented on cells, sequence (Q86YC3 19-692 limits assumed, chain 2 of 2): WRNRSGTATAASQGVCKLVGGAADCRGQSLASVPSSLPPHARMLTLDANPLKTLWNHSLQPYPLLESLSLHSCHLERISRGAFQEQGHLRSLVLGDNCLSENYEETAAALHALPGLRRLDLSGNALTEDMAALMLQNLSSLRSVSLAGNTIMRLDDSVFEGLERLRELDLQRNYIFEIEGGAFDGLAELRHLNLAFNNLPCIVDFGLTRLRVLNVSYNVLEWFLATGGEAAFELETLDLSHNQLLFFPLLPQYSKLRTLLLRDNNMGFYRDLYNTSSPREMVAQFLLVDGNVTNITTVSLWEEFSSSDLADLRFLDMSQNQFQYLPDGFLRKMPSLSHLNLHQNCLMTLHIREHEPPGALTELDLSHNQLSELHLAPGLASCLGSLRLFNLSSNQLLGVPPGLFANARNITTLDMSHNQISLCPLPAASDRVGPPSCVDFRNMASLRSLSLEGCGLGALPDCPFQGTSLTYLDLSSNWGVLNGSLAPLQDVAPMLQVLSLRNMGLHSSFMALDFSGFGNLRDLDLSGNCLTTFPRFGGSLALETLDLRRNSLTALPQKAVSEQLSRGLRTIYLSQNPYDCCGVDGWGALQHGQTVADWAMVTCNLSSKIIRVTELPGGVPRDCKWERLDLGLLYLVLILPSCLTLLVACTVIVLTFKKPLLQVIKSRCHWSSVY

[5] = target: T1, human LRRC33-proTGFβ1 complex (human, UniProt P01137 30-390; Q86YC3 19-650); test: BLI (Octet)
T1 construct: also called hLRRC33-proTGFβ1; hLRRC33
T1 sequence (P01137 30-390 limits assumed, chain 1 of 2): as the sequence (P01137 30-390 limits assumed, chain 1 of 2) above
T1 sequence (Q86YC3 other isoform, or with tags, fused parts or gaps limits assumed, chain 2 of 2): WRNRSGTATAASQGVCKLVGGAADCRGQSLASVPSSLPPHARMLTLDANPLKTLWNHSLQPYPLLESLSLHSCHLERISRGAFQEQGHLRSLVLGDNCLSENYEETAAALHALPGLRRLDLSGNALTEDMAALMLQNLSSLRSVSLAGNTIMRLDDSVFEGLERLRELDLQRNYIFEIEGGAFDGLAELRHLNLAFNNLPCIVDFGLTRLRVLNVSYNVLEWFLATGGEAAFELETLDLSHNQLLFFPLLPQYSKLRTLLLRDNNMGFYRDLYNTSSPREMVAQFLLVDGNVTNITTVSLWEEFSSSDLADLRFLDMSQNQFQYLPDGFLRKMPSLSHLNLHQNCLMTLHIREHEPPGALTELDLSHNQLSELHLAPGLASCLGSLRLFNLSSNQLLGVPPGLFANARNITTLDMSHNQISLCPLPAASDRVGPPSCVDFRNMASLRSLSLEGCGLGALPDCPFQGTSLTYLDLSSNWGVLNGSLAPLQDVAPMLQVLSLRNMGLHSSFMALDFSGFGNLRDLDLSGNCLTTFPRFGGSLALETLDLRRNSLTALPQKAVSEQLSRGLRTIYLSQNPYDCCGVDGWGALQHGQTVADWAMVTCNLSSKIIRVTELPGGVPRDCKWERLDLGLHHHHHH
Experimental: (§1) The affinity of anti-TGFβ1 antibodies was measured by Octet@ assay on human proTGFβ1 cells, while activity was measured by CAGA12 reporter cells testing human proTGFβ1 inhibition.

[6] = target: T2, human GARP-proTGFβ1 complex (human, UniProt P01137 30-390; Q14392 20-627); test: BLI (Octet)
T2 construct: also called hGARP-proTGFβ1; hGARP
T2 sequence (P01137 30-390, chain 1 of 2): as the sequence (P01137 30-390 limits assumed, chain 1 of 2) above
T2 sequence (Q14392 20-627, chain 2 of 2): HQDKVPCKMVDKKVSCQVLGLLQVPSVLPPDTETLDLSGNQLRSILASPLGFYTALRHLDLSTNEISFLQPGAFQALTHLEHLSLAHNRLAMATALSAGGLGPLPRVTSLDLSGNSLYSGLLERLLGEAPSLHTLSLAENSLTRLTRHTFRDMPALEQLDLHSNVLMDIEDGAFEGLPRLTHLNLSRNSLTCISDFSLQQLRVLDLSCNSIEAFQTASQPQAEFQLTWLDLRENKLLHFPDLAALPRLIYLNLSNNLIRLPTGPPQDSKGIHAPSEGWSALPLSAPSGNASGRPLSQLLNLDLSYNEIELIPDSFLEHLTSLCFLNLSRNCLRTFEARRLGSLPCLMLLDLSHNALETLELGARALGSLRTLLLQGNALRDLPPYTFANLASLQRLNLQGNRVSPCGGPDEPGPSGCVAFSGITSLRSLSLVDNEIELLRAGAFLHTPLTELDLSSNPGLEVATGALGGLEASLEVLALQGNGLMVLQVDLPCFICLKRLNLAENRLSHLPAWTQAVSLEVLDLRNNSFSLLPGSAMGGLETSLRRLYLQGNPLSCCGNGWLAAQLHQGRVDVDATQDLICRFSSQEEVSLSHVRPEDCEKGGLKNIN
Experimental: as §1

[7] = target: T1, human LRRC33-proTGFβ1 complex; test: MSD-SET, hIgG4
Experimental: (§2) MSD-SET assays were performed to measure affinities of the antibodies at equilibrium. Briefly, each test antibody was diluted 3-5 fold and samples were mixed with biotinylated antigen in a 48-well dish. The SET samples were equilibrated for 20-24 hours at room temperature. Meanwhile, a capture plate was coated with IgG (20 nM) and incubated overnight at 4° C. or 30 minutes at room temperature, followed by a blocking step with 5% BSA. After the capture plate was washed three times, SET samples were added and incubated for 150 seconds. The plate was washed once to remove unbound complexes. 250 ng/ml SA-Sulfotag was added then washed 3 times. 2× Read Buffer was added, and signals from the labeled bound complexes were read with the use of QuickPlex™ SQ 120 instrument.

[8] = target: T2, human GARP-proTGFβ1 complex; test: MSD-SET, hIgG4
Experimental: as §2

[9] = target: T1, human LRRC33-proTGFβ1 complex; test: MSD-SET
Experimental: as §2
(§3) As an example, MSD standard plates (MSD) were coated with a 20 nM solution of monoclonal antibody in PBS for 30 min at room temperature or overnight at 4° C. […] After 20-24 hours of equilibration, the antibody-coated plate was blocked with Blocking Buffer A (MSD) for 30 minutes at room temperature and washed with wash buffer (PBS, 0.1% BSA, 0.05% Tween-20) before adding the equilibrated antibody-antigen complexes to the plate for exactly 2.5 minutes. The plate was washed again with wash buffer before adding 250 ng/ml SULFO-TAG-labeled streptavidin secondary reagent (MSD) in PBS with 0.1% BSA. After washing with wash buffer, plates were read in MSD read buffer (MSD) using the MESO QuickPlex SQ 120 (MSD). The binding data were processed by nonlinear curve fitting in Prism 7 software (Graphpad) to calculate equilibrium binding KD values.

[10] = target: T3, murine LTBP1-proTGFβ1 complex (mouse, UniProt P04202 30-390; Q8CG19 339-1712, limits assumed); test: MSD-SET
T3 construct: also called mLTBP1-proTGFβ1
Experimental: as §2, §3

[11] = target: T4, murine GARP-proTGFβ1 complex (mouse, UniProt P04202 30-390; G3XA59 18-628); test: MSD-SET
T4 construct: Soluble murine complex; also called mGARP-proTGFβ1
Experimental: as §2, §3

[12] = target: T2, human GARP-proTGFβ1 complex; test: MSD-SET
Experimental: as §2, §3

[13] = target: T1, human LRRC33-proTGFβ1 complex; test: MSD-SET; remark: listed apart in the source
Experimental: as §3

[14] = target: rat LTBP1-proTGFβ1 complex (rat, UniProt P17246 30-390; Q00918 339-1712); test: MSD-SET
Experimental: as §3

[15] = target: T3, murine LTBP1-proTGFβ1 complex; test: MSD-SET; remark: listed apart in the source
Experimental: as §3

[16] = target: T4, murine GARP-proTGFβ1 complex; test: MSD-SET; remark: listed apart in the source
Experimental: as §3

[17] = target: T2, human GARP-proTGFβ1 complex; test: MSD-SET; remark: listed apart in the source
Experimental: as §3

[18] = target: rat LRRC33-proTGFβ1 complex (rat, UniProt P17246 30-390; Q5BK65 25-650); test: MSD-SET
Experimental: as §3

[19] = target: T4, murine GARP-proTGFβ1 complex; test: BLI screen of library antibodies

hLTBP1-proTGFβ1 as produced in the cell-based activation assay, sequence (P01137 30-390 limits assumed, chain 1 of 2): as the sequence (P01137 30-390 limits assumed, chain 1 of 2) above
hLTBP1-proTGFβ1 as produced in the cell-based activation assay, sequence (Q14766 347-1721 limits assumed, chain 2 of 2): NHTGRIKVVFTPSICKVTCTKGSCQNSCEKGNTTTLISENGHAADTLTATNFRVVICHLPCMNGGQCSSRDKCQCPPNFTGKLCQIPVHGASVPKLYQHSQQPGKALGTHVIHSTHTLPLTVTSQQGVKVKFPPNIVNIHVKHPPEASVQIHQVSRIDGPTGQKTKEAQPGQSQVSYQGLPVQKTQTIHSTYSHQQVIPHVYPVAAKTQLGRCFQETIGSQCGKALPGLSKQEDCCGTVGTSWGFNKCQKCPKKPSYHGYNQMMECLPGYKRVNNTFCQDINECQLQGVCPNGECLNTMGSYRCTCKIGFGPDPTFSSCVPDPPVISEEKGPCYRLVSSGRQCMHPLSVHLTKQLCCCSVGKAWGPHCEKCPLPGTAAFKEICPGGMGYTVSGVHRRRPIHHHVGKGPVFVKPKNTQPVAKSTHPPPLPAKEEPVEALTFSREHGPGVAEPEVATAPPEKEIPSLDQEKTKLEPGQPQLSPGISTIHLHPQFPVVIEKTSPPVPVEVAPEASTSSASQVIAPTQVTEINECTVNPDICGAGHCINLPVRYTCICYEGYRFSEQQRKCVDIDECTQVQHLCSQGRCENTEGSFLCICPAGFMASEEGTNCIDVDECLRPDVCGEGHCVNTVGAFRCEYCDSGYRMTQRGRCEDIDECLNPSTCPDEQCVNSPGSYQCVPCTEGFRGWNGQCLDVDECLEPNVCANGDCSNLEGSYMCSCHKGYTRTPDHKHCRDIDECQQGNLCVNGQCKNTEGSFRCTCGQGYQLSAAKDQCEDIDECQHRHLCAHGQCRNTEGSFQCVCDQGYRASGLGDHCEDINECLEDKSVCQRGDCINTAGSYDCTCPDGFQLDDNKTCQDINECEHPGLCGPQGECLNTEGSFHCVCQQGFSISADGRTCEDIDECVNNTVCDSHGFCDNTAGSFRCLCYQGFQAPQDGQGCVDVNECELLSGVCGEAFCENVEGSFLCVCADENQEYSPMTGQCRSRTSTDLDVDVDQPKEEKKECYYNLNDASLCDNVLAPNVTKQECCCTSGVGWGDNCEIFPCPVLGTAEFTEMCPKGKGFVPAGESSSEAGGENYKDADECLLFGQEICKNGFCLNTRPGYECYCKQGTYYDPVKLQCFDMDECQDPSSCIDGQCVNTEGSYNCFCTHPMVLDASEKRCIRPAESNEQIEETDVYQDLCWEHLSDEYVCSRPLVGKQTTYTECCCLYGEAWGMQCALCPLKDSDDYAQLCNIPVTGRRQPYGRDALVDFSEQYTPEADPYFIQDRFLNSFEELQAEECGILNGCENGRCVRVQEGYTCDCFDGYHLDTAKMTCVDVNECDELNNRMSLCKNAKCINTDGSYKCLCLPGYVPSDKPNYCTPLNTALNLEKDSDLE

- IC50, reporter cell assay [1]: 2.95 nM
- IC50, reporter cell assay [2]: 1.56 nM
- IC50, reporter cell assay [3]: 0.79 nM
- IC50, reporter cell assay [4]: 1.27 nM
- Kd [5]: 0.555 nM
- Kd [6]: 0.842 nM
- Kd [7]: 6.3 nM
- Kd [8]: 3 nM
B1: Ab11 (antibody, IgG4, V domains shown)
VH: EVQLLESGGGLVQPGGSLRLSCAASGFTFRNYAMSWVRQAPGKGLEWVSSISGSGGATYYADSVKGRFTISRDNSKNTLYLQMNSLRAEDTAVYYCARVSSGHWDFDYWGQGTLVTVSS
VL: DIQLTQSPSSLSASVGDRVTITCRASQSISSYLNWYQQKPGKAPKLLIYAASNLQSGVPSRFSGSGSGTDFTLTISSLQPEDFATYYCQQTYTVPLTFGGGTKVEIK

- IC50, reporter cell assay [1]: 3.39 nM
- IC50, reporter cell assay [2]: 0.867 nM
- IC50, reporter cell assay [3]: 0.776 nM
- IC50, reporter cell assay [4]: 1.38 nM
- Kd [5]: 0.508 nM
- Kd [6]: 0.778 nM
- Kd [7]: 3.2 nM
- Kd [8]: 1.4 nM
B2: Ab2 (antibody, V domains shown)
VH: B1 VH with R30A, N31D, S35T, S50A, G56A, Y60F
VL: DIQLTQSPSSLSASVGDRVTITCRASQSISSYLNWYQQKPGKAPKLLIYAASNLQSGVPSRFSGSGSGTDFTLTISSLQPEDFATYYCQQTYTVPLTFGGGTKVEIKR

- IC50, reporter cell assay [1]: 6.25 nM
- IC50, reporter cell assay [2]: 2.71 nM
- IC50, reporter cell assay [3]: 3.71 nM
- IC50, reporter cell assay [4]: 5.37 nM
- Kd [5]: 0.545 nM
- Kd [6]: 7.37 nM
- Kd [7]: 1.1 nM
- Kd [8]: 1.1 nM
B3: Ab35 (antibody, IgG4, V domains shown)
VH: B1 VH with G102Y, H103L
VL: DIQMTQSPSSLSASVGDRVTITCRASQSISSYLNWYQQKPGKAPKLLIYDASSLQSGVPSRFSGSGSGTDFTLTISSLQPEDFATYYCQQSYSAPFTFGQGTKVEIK

- IC50, reporter cell assay [1]: 1.66 nM
- IC50, reporter cell assay [2]: 1.6 nM
- IC50, reporter cell assay [3]: 1.34 nM
- IC50, reporter cell assay [4]: 0.401 nM
- Kd [5]: 0.692 nM
- Kd [6]: 11.2 nM
- Kd [7]: 5.7 nM
- Kd [8]: 3.8 nM
B4: Ab19 (antibody, IgG4, V domains shown)
VH: QVQLVESGGGVVQPGRSLRLSCAASGFTFSSFAMTWVRQAPGKGLEWVSAISGSGAATYFADSVKGRFTISRDNSKNTLYLQMNSLRAEDTAVYYCARVSSGHWDFDEWGQGTLVTVSS
VL: B1 VL

- IC50, reporter cell assay [1]: 3.79 nM
- IC50, reporter cell assay [2]: 1.55 nM
- IC50, reporter cell assay [3]: 1.08 nM
- IC50, reporter cell assay [4]: 2.43 nM
- Kd [5]: 0.775 nM
- Kd [6]: 7.01 nM
- Kd [7]: 3.2 nM
- Kd [8]: 1.7 nM
B5: Ab12 (antibody, IgG4, V domains shown)
VH: B4 VH with S31D, F32Y, T35V, A56F, A57T, F60Y, E108Y
VL: B1 VL

- IC50, reporter cell assay [1]: 1.85 nM
- IC50, reporter cell assay [2]: 1.18 nM
- IC50, reporter cell assay [3]: 0.387 nM
- IC50, reporter cell assay [4]: 1.35 nM
- Kd [5]: 0.545 nM
- Kd [6]: 0.884 nM
- Kd [7]: 1.6 nM
- Kd [8]: 1.1 nM
B6: Ab20 (antibody, IgG4, V domains shown)
VH: B1 VH with R30S, N31A, S35T, S50A, A57V, F106Y
VL: B1 VL

- IC50, reporter cell assay [1]: 2.74 nM
- IC50, reporter cell assay [2]: 0.821 nM
- IC50, reporter cell assay [3]: 0.324 nM
- IC50, reporter cell assay [4]: 0.495 nM
- Kd [5]: 0.336 nM
- Kd [6]: 0.404 nM
- Kd [9]: 0.063 nM
- Kd [10]: 0.024 nM
- Kd [11]: 0.021 nM
- Kd [12]: 0.027 nM
- Kd [13]: 0.063 nM
- Kd [14]: 0.035 nM
- Kd [15]: 0.024 nM
- Kd [16]: 0.021 nM
- Kd [17]: 0.027 nM
- Kd [18]: 0.086 nM
- Kd [7]: 0.063 nM
- Kd [8]: 0.027 nM
B7: Ab6 (antibody, V domains shown)
VH: EVQLVESGGGLVQPGGSLRLSCTASGFTFSSFSMDWVRQAPGKGLEWVSYISPSADTIYYADSVKGRFTISRDNAKNTLYLQMNSLRAEDTAVYYCARGVLDYGDMLMPWGQGTLVTVSS
VL: DIQMTQSPSSLSASVGDRVTITCQASQDITNYLNWYQQKPGKAPKLLIYDASNLETGVPSRFSGSGSGTDFTFTISSLQPEDIATYYCQQADNHPPWTFGGGTKVEIKR

- IC50, reporter cell assay [1]: 5.22 nM
- IC50, reporter cell assay [2]: 5.65 nM
- IC50, reporter cell assay [3]: 0.822 nM
- IC50, reporter cell assay [4]: 3.5 nM
- binding result [19]: binds
- Kd [7]: 2.1 nM
- Kd [8]: 2.5 nM
B8: Ab4 (antibody, IgG4, V domains shown)
VH: B7 VH with T23A, F32Y, D35N, P53S, A55S, D56S, T78S, M108D
VL: DIQMTQSPSSLSASVGDRVTITCQASQDITNYLNWYQQKPGKAPKLLIYDASNLETGVPSRFSGSGSGTDFTFTISSLQPEDIATYYCQQADNHPPWTFGGGTKVEIK
notes: parent of Ab6
